The text below walks through data of patent US20170056486A1 (IMMATICS BIOTECHNOLOGIES, published 2017).

The chains are these.
B1: FVLPLVVTL (peptide)
peptide: FVLPLVVTL
B2: TLLGKQVTL (peptide)
peptide: TLLGKQVTL
B3: GLYQAQVNL (peptide)
peptide: GLYQAQVNL
B4: FLDPAQRDL (peptide)
peptide: FLDPAQRDL
B5: GIYDGILHSI (peptide)
peptide: GIYDGILHSI
B6: IVLSTIASV (peptide)
peptide: IVLSTIASV
B7: YVLNEEDLQKV (peptide)
peptide: YVLNEEDLQKV
B8: KLGPFLLNA (peptide)
peptide: KLGPFLLNA
B9: LLDESKLTL (peptide)
peptide: LLDESKLTL
B10: GLFSQHFNL (peptide)
peptide: GLFSQHFNL
notes: also called DNMT3B-001
B11: SLAKHGIVAL (peptide)
peptide: SLAKHGIVAL
B12: ELAEIVFKV (peptide)
peptide: ELAEIVFKV
B13: LLLPLLPPLSPSLG (peptide)
peptide: LLLPLLPPLSPSLG
B14: VLRDNIQGI (peptide)
peptide: VLRDNIQGI
B15: FLEEEITRV (peptide)
peptide: FLEEEITRV
B16: ALTKILAEL (peptide)
peptide: ALTKILAEL
B17: ALYGKLLKL (peptide)
peptide: ALYGKLLKL
B18: FITDFYTTV (peptide)
peptide: FITDFYTTV
B19: AAAAKVPEV (peptide)
peptide: AAAAKVPEV
B20: TLDEYLTYL (peptide)
peptide: TLDEYLTYL
B21: ILHEHHIFL (peptide)
peptide: ILHEHHIFL
B22: SLLALPQDLQA (peptide)
peptide: SLLALPQDLQA
B23: ALINDILGELVKL (peptide)
peptide: ALINDILGELVKL
B24: GLITVDIAL (peptide)
peptide: GLITVDIAL
B25: KVFGDLDQV (peptide)
peptide: KVFGDLDQV
B26: SLFGQEVYC (peptide)
peptide: SLFGQEVYC
B27: ELLEYLPQL (peptide)
peptide: ELLEYLPQL
B28: FLWNGEDSAL (peptide)
peptide: FLWNGEDSAL
B29: ALMAVVSGL (peptide)
peptide: ALMAVVSGL
B30: ALDGHLYAI (peptide)
peptide: ALDGHLYAI
B31: LLLDGDFTL (peptide)
peptide: LLLDGDFTL
B32: VLGPTPELV (peptide)
peptide: VLGPTPELV
B33: ILDNVKNLL (peptide)
peptide: ILDNVKNLL
B34: KMQEDLVTL (peptide)
peptide: KMQEDLVTL
B35: TLLPTVLTL (peptide)
peptide: TLLPTVLTL
B36: ELLSSIFFL (peptide)
peptide: ELLSSIFFL
B37: SLLSHVIVA (peptide)
peptide: SLLSHVIVA
B38: LLWAGPVTA (peptide)
peptide: LLWAGPVTA
B39: LLWGHPRVA (peptide)
peptide: LLWGHPRVA
B40: ILADEAFFSV (peptide)
peptide: ILADEAFFSV
B41: VLSPFILTL (peptide)
peptide: VLSPFILTL
B42: KVDGVVIQL (peptide)
peptide: KVDGVVIQL
B43: KLDGICWQV (peptide)
peptide: KLDGICWQV
B44: TLYSMDLMKV (peptide)
peptide: TLYSMDLMKV
B45: SLFNQEVQI (peptide)
peptide: SLFNQEVQI
B46: TLCNKTFTA (peptide)
peptide: TLCNKTFTA
B47: ILLDESNFNHFL (peptide)
peptide: ILLDESNFNHFL
B48: GMIGFQVLL (peptide)
peptide: GMIGFQVLL
B49: FINPKGNWLL (peptide)
peptide: FINPKGNWLL

The assay addresses T1, HLA-A*02 (human).
T1 construct: Peptide-receptive MHC monomer made by UV cleavage of a UV-sensitive ligand and captured on streptavidin plates; also called HLA-A*02 MHC class I molecule; peptide-receptive MHC
Description: UV-exchange ELISA (anti-b2m); yield 50%-75%. From the text:
Candidate peptides for T cell based therapies according to the present invention were further tested for their MHC binding capacity (affinity). The individual peptide-MHC complexes were produced by UV-ligand exchange, where a UV-sensitive peptide is cleaved upon UV-irradiation, and exchanged with the peptide of interest as analyzed. Only peptide candidates that can effectively bind and stabilize the peptide-receptive MHC molecules prevent dissociation of the MHC complexes. To determine the yield of the exchange reaction, an ELISA was performed based on the detection of the light chain (β2m) of stabilized MHC complexes. The assay was performed as generally described in Rodenko et al. (Rodenko et al., 2006).
96 well MAXISorp plates (NUNC) were coated over night with 2 ug/ml streptavidin in PBS at room temperature, washed 4× and blocked for 1 h at 37° C. in 2% BSA containing blocking buffer. […] Peptide-MHC monomers of the UV-exchange reaction were diluted 100 fold in blocking buffer. Samples were incubated for 1 h at 37° C., washed four times, incubated with 2 ug/ml HRP conjugated anti-β2m for 1 h at 37° C., washed again and detected with TMB solution that is stopped with […]. Absorption was measured at 450 nm.
Molecule B1 registered a peptide exchange yield of 50 to 75%. In the case of B2 it was 50 to 75%; in that of B3, 50 to 75%; in that of B4, 50 to 75%. In turn, B5 registered a peptide exchange yield of 50 to 75%. Under B6 stands 50 to 75%. The molecule B7 gave a peptide exchange yield of 50 to 75%. In turn, B8 gave a peptide exchange yield of 50 to 75%.

With B9, the peptide exchange yield was 50 to 75%. Under B10 stands 50 to 75%.

B11 came in with a peptide exchange yield of 50 to 75%.

Turning to B12, the peptide exchange yield was in the range of 50 to 75%. As for B13, the peptide exchange yield was in the range of 50 to 75%.

Take B14: the peptide exchange yield was 50 to 75%. As for B15, the peptide exchange yield lay within 50 to 75%.

The molecule B16 came in with a peptide exchange yield of 50 to 75%. Under B17 stands 50 to 75%; under B18, 50 to 75%. In the case of B19 it was 50 to 75%; in that of B20, 50 to 75%; in that of B21, 50 to 75%. In the case of B22 it was 50 to 75%; in that of B23, 50 to 75%; in that of B24, 50 to 75%.

B25: the peptide exchange yield is 50 to 75%.

As for B26, the peptide exchange yield was in the range of 50 to 75%. Under B27 stands 50 to 75%; under B28, 50 to 75%. The molecule B29 came in with a peptide exchange yield of 50 to 75%. With B30, the peptide exchange yield lay within 50 to 75%. Under B31 stands 50 to 75%; under B32, 50 to 75%. Under B33 stands 50 to 75%. Take B34: the peptide exchange yield was in the range of 50 to 75%. Under B35 stands 50 to 75%; under B36, 50 to 75%. B37 returned a peptide exchange yield of 50 to 75%. Turning to B38, the peptide exchange yield was 50 to 75%. Under B39 stands 50 to 75%.

B40: the peptide exchange yield was 50 to 75%. Under B41 stands 50 to 75%; under B42, 50 to 75%. B43 showed a peptide exchange yield of 50 to 75%. In the case of B44 it was 50 to 75%.

Regarding B45, the peptide exchange yield lay within 50 to 75%.

For the molecule B46, the peptide exchange yield lay in the range of 50 to 75%. Under B47 stands 50 to 75%; under B48, 50 to 75%; under B49, 50 to 75%.
